Measured values published in patent US20210214414A1 (Pfizer, published 2021).

Columns and labels:
[1] = target: T1, Human SLIT3-N (human, UniProt O75094 34-1119, limits assumed); assay: HTRF competition: d2-labelled human SLIT3-N binding to human ROBO2 on HEK293 cells; geometric mean, n=3
T1 construct: domain: SLIT3-N; d2-labelled in the HTRF assay
T1 sequence (looked up): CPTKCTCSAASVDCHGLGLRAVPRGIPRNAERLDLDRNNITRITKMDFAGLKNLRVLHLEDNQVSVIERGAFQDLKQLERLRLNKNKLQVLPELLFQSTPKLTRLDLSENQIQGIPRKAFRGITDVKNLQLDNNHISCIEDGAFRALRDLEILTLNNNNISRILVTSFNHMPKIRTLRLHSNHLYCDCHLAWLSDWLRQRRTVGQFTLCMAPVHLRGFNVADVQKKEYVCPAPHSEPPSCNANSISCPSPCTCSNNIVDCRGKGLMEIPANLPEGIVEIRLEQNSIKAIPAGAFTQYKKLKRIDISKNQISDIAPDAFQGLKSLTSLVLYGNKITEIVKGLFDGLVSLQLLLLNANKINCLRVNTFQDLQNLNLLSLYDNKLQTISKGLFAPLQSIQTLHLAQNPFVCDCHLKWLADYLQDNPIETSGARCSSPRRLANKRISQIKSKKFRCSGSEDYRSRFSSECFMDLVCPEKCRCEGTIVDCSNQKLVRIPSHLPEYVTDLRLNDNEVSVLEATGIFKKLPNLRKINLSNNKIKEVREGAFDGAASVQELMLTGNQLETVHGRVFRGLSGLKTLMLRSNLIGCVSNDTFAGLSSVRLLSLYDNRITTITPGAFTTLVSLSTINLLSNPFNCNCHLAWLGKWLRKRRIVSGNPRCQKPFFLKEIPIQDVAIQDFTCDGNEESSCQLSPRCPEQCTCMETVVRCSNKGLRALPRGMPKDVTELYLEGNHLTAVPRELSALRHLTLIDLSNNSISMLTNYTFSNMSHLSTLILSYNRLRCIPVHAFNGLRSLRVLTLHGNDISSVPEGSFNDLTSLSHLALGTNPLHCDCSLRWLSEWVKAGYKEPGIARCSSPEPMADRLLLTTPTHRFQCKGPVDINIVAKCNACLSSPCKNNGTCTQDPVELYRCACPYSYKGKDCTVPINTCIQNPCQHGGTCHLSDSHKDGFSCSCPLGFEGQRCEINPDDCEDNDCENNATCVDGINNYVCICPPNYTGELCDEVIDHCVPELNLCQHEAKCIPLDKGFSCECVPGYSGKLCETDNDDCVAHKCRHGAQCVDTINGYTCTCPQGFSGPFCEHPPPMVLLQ
Description: (§1) After incubation, fluorescence at 665 nm and 620 nm was measured on an Envision multilabel plate reader. The HTRF Ratio was calculated as follows: fluorescence at 665 nm/fluorescence at 620 nm×10,000. […] The IC₅₀ for each SLITx-N was determined using an 11-point, 4-fold dilution series with a top concentration of 4000 nM.

[2] = target: T2, Mouse SLIT3-N (mouse, UniProt Q9WVB4 34-1119, limits assumed); assay: HTRF competition: d2-labelled mouse SLIT3-N binding to human ROBO2 on HEK293 cells; geometric mean, n=3
T2 construct: domain: SLIT3-N; d2-labelled in the HTRF assay
T2 sequence (looked up): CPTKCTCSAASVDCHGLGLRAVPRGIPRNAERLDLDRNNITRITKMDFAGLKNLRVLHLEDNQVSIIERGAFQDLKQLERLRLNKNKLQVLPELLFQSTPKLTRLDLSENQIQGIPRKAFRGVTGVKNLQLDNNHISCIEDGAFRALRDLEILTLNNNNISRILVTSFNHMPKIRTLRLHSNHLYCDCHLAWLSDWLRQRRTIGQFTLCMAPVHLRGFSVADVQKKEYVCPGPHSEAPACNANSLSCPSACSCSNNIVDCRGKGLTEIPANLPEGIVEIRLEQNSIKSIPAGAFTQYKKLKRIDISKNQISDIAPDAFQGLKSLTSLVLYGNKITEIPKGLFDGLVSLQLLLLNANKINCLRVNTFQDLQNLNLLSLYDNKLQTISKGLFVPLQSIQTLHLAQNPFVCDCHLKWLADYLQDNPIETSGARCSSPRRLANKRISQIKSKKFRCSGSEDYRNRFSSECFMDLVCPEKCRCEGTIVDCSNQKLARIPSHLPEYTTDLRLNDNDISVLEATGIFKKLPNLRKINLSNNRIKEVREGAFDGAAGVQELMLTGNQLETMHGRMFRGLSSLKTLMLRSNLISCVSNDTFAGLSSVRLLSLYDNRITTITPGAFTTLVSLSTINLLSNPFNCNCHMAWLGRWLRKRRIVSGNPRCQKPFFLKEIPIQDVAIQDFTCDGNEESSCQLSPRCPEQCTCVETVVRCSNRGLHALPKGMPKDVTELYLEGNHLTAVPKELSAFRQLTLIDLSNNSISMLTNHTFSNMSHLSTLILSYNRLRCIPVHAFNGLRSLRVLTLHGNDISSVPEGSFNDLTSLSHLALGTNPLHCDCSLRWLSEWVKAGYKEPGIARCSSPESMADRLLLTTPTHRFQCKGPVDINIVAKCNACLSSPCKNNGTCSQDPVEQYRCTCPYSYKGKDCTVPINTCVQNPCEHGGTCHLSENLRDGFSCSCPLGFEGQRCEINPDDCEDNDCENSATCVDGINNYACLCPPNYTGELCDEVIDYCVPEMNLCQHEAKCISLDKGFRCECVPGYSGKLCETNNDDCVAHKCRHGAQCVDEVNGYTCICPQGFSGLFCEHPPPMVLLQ
Description: as §1

IC50 [1]: 5.1 nM
IC50 [2]: 4.3 nM
B1: ROBO2-Fc 2.2 (Fc fusion)
chain: SRLRQEDFPPRIVEHPSDVIVSKGEPTTLNCKAEGRPTPTIEWYKDGERVETDKDDPRSHRMLLPSGSLFFLRIVHGRRSKPDEGSYVCVARNYLGEAVSRNASLEVALLRDDFRQNPTDVVVAAGEPAILECQPPRGHPEPTIYWKKDKVRIDDKEERISIRGGKLMISNTRKSDAGMYTCVGTNMVGERDSDPAELTVFERGGSGGSEPKSSDKTHTCPPCPAPEAAGAPSVFLFPPKPKDTLMISRTPEVTCVVVDVSHEDPEVKFNWYVDGVEVHNAKTKPREEQYNSTYRVVSVLTVLHQDWLNGKEYKCKVSNKALPAPIEKTISKAKGQPREPQVYTLPPSREEMTKNQVSLTCLVKGFYPSDIAVEWESNGQPENNYKTTPPVLDSDGSFFLYSKLTVDKSRWQQGNVFSCSVMHEALHNHYTQKSLSLSPG
notes: Labelled with Alexa Fluor 647 in the flow cytometry assay; also called ROBO-Fc 2.2; ROBO2-Fc 2.2-AF647
